# According to the RNAGym collection of RNA variant scans (doi:10.7554/elife.80360):
# B1: Twister Ribozyme (parent)
# chain: AACACUGCCAAUGCCGGUCCCAAGCCCGGAUAAAAGUGGAGGGGGCGG
# Variants of: B1
# Assay: self-cleavage, relative activity (ratio to wild type); higher = more cleavage; co-transcriptional
row,Variant,self-cleavage
1,C5G C21G,0.155
2,C5U C8G,0.132
3,C5U C8A,0.193
4,A4C G42A,0.0686
5,A4G A40C,0.0709
6,A4G U6C,0.104
7,C5A C19A,0.0624
8,C5A C19U,0.424
9,A4U A10G,0.125
10,C5G G47A,0.547
11,A4G G7A,0.169
12,A4G G7C,0.0363
13,C5A A11G,0.479
14,A4U G42U,0.0714
15,C5G G39C,0.106
16,C5G G39U,0.134
17,C5G G41A,0.168
18,C5A C21G,0.113
19,C5A C21A,0.0272
20,C5A C21U,0.0869
21,A4G G13C,0.244
22,A4G G13U,0.327
23,C5G G43A,0.153
24,C5G G43C,0.122

row,Variant,self-cleavage
1,C5G G43U,0.136
2,A4U G24U,0.0752
3,A4U A40G,0.0581
4,C5G C27G,0.0623
5,C5G G48U,0.627
6,C5U G24C,0.0979
7,C5U G24A,0.058
8,A4C G41A,0.0502
9,C5G C46A,0.776
10,C5G C46U,0.77
11,C5A C9G,0.0413
12,A4G G47C,0.386
13,A4G A10U,1.04
14,A4G A33U,0.858
15,A4G U18C,0.58
16,A4G U18G,0.0583
17,A4U U18G,0.0369
18,A4U U18C,0.027
19,A4U U18A,0.0531
20,A4G G17C,0.0548
21,C5A A10U,0.39
22,C5A A10G,0.705
23,C5G U37A,0.404
24,A4G C9A,0.698

row,Variant,self-cleavage
1,A4G A11C,0.663
2,A4G A11U,0.996
3,A4G G36A,0.385
4,A4G G42U,0.195
5,A4G G42A,0.289
6,C5A G48C,0.53
7,A4U G38U,0.138
8,A4U G38C,0.252
9,A4G G39C,0.115
10,A4G G39U,0.153
11,C5U G39U,0.175
12,C5U G39A,0.167
13,C5U A32G,0.795
14,A4U C26U,0.0595
15,A4U C26G,0.0523
16,A4G G41C,0.181
17,A4G G41A,0.244
18,C5G C20U,0.65
19,C5G C20G,0.0308
20,C5G G17A,0.0746
21,A4U C19A,0.0659
22,A4G G44A,0.88
23,C5U C19G,0.107
24,A4U U6C,0.0522

row,Variant,self-cleavage
1,A4U U6G,0.0301
2,C5U C15A,0.385
3,C5U C15G,0.0698
4,C5U C15U,0.762
5,C5A C25G,0.0605
6,A4G A34C,0.128
7,A4G A34U,0.499
8,C5U G29A,0.739
9,C5A C8G,0.106
10,A4G G29U,0.851
11,A4G G29C,0.571
12,C5A G45C,0.16
13,C5A G45A,0.532
14,C5G A32G,0.749
15,C5U A40U,0.146
16,C5U A23C,0.116
17,C5U A23G,0.23
18,C5U A23U,0.306
19,C5G G45C,0.222
20,A4U G47U,0.0997
21,A4U G47A,0.0604
22,A4U C5G,0.0771
23,A4U C5U,0.136
24,A4U U31G,0.161

row,Variant,self-cleavage
1,A4U U31A,0.143
2,C5U G13C,0.13
3,A4G C26G,0.169
4,A4G C26U,0.252
5,A4G C26A,0.293
6,A4G C15G,0.0751
7,A4G C15U,0.944
8,C5G A33C,0.565
9,C5G A33U,0.662
10,A4U G41A,0.0938
11,A4U G41U,0.0632
12,C5G A11U,0.665
13,C5G A11G,0.696
14,C5G G28U,0.279
15,C5G G28C,0.212
16,C5G U6A,0.404
17,C5G U6G,0.232
18,C5G A35U,0.637
19,A4U G43A,0.0748
20,A4U G43U,0.0514
21,C5A G41U,0.132
22,C5A G41A,0.107
23,C5G C26A,0.126
24,C5G C26U,0.104

row,Variant,self-cleavage
1,A4C G43C,0.0981
2,A4U A22U,0.0795
3,A4U C9A,0.0614
4,A4U C9U,0.0756
5,A4U G48U,0.147
6,A4C G47U,0.121
7,C5A A23G,0.0488
8,C5A A23C,0.0937
9,A4U G28A,0.0702
10,A4U C27U,0.0803
11,A4U C27G,0.115
12,A4U A34G,0.0772
13,C5U G36U,0.644
14,A4U G45A,0.105
15,A4U G45U,0.124
16,A4U G45C,0.0951
17,C5A C15A,0.214
18,C5A C15G,0.0768
19,A4U A35G,0.0949
20,A4U A11C,0.0933
21,A4U A11G,0.184
22,A4U A11U,0.193
23,C5G A30G,0.608
24,C5G A30U,0.883

row,Variant,self-cleavage
1,A4C U6G,0.0323
2,A4C U6C,0.0627
3,C5U A30C,0.542
4,C5A U31C,0.653
5,C5A U31A,0.438
6,C5G G36C,0.966
7,C5G G36A,0.732
8,C5A G28U,0.282
9,C5A G28A,0.232
10,A4G U37G,0.73
11,A4G U37A,0.796
12,A4G C8A,0.524
13,A4G C8U,0.953
14,C5U A22C,0.963
15,C5U A22U,0.526
16,A4G C21U,0.118
17,A4U G16A,0.0873
18,C5G G24C,0.118
19,C5G G24U,0.112
20,C5U A35U,0.91
21,C5U A35C,0.82
22,C5G C15G,0.0337
23,C5U G17C,0.0605
24,C5U G17U,0.116

row,Variant,self-cleavage
1,A4G G24C,0.0502
2,A4G G24A,0.0846
3,C5A G29C,0.279
4,C5G,0.85
5,C5U,0.887
6,C5A,0.66
7,C5G C8A,0.15
8,A4U G7C,0.0628
9,A4U G7A,0.1
10,A4U G44U,0.146
11,A4U G44A,0.248
12,A4U G44C,0.105
13,C5U G41A,0.214
14,C5G A10U,0.69
15,C5G A10G,1.17
16,A4C G44A,0.165
17,A4C G36C,0.0766
18,A4C G36A,0.103
19,C5G C9G,0.125
20,C5G C9A,0.167
21,C5G A23G,0.133
22,C5G A23U,0.136
23,C5G A23C,0.0471
24,A4U G39U,0.0721

row,Variant,self-cleavage
1,A4U G39C,0.0848
2,A4C G38C,0.61
3,A4C G38A,0.142
4,A4C G38U,0.591
5,C5A C27U,0.249
6,A4C U31A,0.182
7,A4C U31G,0.177
8,C5G G29C,0.306
9,C5G G29U,0.584
10,C5G G29A,0.458
11,C5A A30U,0.498
12,A4G C27G,0.0421
13,C5G U12A,0.821
14,C5G U12C,0.896
15,C5A U12A,0.764
16,C5A U12C,0.462
17,C5A G43C,0.118
18,C5U A10G,0.869
19,C5U A10U,0.816
20,C5U A10C,1.06
21,C5U C26G,0.0996
22,C5U C26A,0.148
23,C5U C26U,0.0759
24,C5A C20U,0.465

row,Variant,self-cleavage
1,C5A C26G,0.0639
2,C5A C26U,0.0777
3,C5A C26A,0.1
4,C5U G16A,0.584
5,C5U G16C,0.159
6,C5A C46G,0.689
7,C5A A34G,0.41
8,A4G A23U,0.358
9,A4G A23C,0.0625
10,A4U A33U,0.0597
11,A4U A33C,0.0899
12,C5A G42U,0.138
13,A4C U18A,0.0406
14,A4C U18C,0.0605
15,A4C U18G,0.111
16,C5G C14U,0.793
17,A4G G28C,0.529
18,C5G G38A,0.298
19,A4G C25U,0.595
20,A4G G45C,0.294
21,A4G G45U,0.741
22,A4U G36A,0.056
23,A4U G36U,0.0439
24,C5U A34G,0.511

row,Variant,self-cleavage
1,C5U A34U,0.631
2,C5A G7C,0.0608
3,C5A G7U,0.0804
4,A4U C25G,0.0782
5,A4U C25U,0.0507
6,A4U G17U,0.0471
7,A4U G17A,0.0705
8,C5G G13C,0.0798
9,C5G G13A,0.115
10,A4G C46U,0.775
11,A4G C46G,1.15
12,A4C G39C,0.0869
13,A4C G39U,0.0723
14,C5A G17A,0.0903
15,C5A G17U,0.0729
16,A4U A23U,0.0527
17,A4C U12C,0.228
18,C5A U18C,0.106
19,A4U G13A,0.0571
20,C5U G28C,0.434
21,C5U G28U,0.67
22,A4U C15A,0.0639
23,A4C G48A,0.134
24,A4C G48C,0.31

row,Variant,self-cleavage
1,C5U C9G,0.342
2,C5A A33G,0.472
3,C5A A33C,0.439
4,C5A C14G,0.0565
5,C5G C25U,0.411
6,C5G G16U,0.0938
7,C5G G16C,0.0784
8,C5A G47A,0.523
9,C5A G47C,0.199
10,A4G C20G,0.128
11,A4G A30U,0.762
12,A4G A30C,0.736
13,C5U C25A,0.0792
14,A4U C20U,0.0245
15,A4U C20G,0.0603
16,C5A G36A,0.583
17,C5A G36U,0.689
18,C5A A35U,0.508
19,C5A A35G,0.328
20,C5A A32G,0.542
21,C5G G7C,0.0519
22,C5U C46G,0.776
23,C5U C46U,0.825
24,C5U C20G,0.102

row,Variant,self-cleavage
1,C5G A34U,0.309
2,C5G A34C,0.117
3,C5G A34G,0.384
4,A4U U37A,0.7
5,A4U U37G,0.624
6,C5G U18C,0.196
7,C5G U18G,0.0734
8,C5G U18A,0.104
9,C5U A11C,0.541
10,C5U A11U,0.564
11,A4C G29U,0.145
12,A4C G29A,0.168
13,A4C G29C,0.0879
14,C5A G16A,0.301
15,C5A G16U,0.237
16,C5A G16C,0.098
17,C5G U31G,0.757
18,C5G U31A,0.634
19,C5G U31C,0.584
20,A4U A30C,0.0756
21,A4U A30G,0.176
22,A4U G29C,0.0635
23,A4U G29U,0.094
24,A4G U12C,0.811

row,Variant,self-cleavage
1,C5A U37C,0.124
2,C5A U37G,0.671
3,C5A U37A,0.547
4,C5U C27U,0.483
5,C5A U6A,0.0843
6,C5A U6C,0.112
7,C5A U6G,0.154
8,A4G G38C,0.918
9,A4G G38U,0.947
10,A4U C8A,0.0382
11,C5G A22G,0.137
12,C5G A22U,0.401
13,A4G G48A,0.955
14,A4G G48C,1.18
15,C5U G42C,0.287
16,C5U G42A,0.184
17,C5U C21U,0.0809
18,C5U C21A,0.126
19,C5A G24A,0.0547
20,C5A G24U,0.0619
21,A4G A32G,1.05
22,C5A A40G,0.0921
